In patent publication US20200123260A1:

Columns and labels:
Assay in all cases: cell-based or functional assay
[1] = molecular target: hTrkB-a isoform fused to a small peptide epitope, in U2OS cells (Discoverx Pathhunter) (human) (UniProt Q16620)
[2] = molecular target: hTrkA in the SHC1 recruitment assay (U2OS, Discoverx Pathhunter) (human) (UniProt P04629)
[3] = molecular target: hTrkC in the SHC1 recruitment assay (U2OS, Discoverx Pathhunter) (human) (UniProt Q16288)
Chain of hTrkC in the SHC1 recruitment assay (U2OS, Discoverx Pathhunter) (human) (Q16288 32-839): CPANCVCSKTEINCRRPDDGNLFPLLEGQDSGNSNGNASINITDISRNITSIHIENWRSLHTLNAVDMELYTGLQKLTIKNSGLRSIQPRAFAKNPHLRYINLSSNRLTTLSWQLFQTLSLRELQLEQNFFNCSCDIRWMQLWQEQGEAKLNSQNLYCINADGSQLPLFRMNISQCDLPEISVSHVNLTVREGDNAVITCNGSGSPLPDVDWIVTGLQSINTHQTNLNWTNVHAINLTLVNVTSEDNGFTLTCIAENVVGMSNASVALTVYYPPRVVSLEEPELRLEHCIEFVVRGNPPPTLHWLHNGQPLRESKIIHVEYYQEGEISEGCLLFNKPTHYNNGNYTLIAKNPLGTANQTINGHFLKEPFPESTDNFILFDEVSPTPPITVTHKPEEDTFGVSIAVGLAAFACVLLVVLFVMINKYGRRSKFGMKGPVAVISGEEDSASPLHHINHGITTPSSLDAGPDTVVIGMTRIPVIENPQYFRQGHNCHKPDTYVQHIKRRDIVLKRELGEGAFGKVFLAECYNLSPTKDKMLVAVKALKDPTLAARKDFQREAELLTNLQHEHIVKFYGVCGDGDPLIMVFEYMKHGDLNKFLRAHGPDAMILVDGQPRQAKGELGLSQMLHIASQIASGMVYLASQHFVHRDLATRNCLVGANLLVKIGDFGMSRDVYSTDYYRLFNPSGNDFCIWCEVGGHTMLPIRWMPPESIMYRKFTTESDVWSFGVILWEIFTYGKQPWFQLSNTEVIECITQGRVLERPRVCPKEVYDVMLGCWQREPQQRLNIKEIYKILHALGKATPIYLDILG

Chain of hTrkB-a isoform fused to a small peptide epitope, in U2OS cells (Discoverx Pathhunter) (human) (Q16620 32-822): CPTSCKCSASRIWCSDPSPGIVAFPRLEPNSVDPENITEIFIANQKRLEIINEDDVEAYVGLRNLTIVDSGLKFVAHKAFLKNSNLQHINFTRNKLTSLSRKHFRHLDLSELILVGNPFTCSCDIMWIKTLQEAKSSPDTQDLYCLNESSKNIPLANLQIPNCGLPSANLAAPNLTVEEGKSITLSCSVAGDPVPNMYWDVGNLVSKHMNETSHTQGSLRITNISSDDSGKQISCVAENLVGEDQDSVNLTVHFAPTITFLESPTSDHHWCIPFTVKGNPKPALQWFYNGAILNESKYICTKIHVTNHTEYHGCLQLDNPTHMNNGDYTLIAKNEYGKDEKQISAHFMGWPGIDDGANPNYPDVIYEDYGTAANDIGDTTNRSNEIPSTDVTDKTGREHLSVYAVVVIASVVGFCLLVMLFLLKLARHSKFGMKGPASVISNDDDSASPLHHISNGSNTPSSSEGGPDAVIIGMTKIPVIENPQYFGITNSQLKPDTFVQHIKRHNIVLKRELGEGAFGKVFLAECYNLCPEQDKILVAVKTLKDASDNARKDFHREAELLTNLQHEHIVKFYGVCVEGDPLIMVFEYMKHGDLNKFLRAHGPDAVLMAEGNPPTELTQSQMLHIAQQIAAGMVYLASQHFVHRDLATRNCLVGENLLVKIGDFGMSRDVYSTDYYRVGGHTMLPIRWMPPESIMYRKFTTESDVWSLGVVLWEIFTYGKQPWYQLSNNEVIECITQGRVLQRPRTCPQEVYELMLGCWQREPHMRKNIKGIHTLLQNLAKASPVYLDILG
Chain of hTrkA in the SHC1 recruitment assay (U2OS, Discoverx Pathhunter) (human) (P04629 33-796): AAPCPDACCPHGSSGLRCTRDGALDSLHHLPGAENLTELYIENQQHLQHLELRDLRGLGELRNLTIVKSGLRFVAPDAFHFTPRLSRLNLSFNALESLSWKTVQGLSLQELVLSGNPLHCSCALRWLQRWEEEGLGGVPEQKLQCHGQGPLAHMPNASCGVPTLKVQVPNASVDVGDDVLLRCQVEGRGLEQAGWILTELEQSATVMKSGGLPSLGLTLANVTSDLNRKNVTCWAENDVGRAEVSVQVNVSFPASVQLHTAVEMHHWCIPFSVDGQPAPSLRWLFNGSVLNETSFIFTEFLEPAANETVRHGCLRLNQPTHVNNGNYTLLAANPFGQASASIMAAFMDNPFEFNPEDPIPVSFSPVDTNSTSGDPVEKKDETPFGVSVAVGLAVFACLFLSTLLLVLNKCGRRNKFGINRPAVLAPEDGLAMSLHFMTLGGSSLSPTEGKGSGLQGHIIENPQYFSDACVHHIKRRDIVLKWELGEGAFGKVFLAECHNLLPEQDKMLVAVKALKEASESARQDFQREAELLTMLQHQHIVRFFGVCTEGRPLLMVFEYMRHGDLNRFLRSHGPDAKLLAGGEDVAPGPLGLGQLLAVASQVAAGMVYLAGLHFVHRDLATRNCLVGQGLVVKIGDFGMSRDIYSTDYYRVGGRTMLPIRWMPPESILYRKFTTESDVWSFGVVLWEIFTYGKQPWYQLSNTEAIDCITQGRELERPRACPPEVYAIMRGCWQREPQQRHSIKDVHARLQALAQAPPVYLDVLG
Chain of NGF (R&D 256GF) (ligand) (P01138 122-241): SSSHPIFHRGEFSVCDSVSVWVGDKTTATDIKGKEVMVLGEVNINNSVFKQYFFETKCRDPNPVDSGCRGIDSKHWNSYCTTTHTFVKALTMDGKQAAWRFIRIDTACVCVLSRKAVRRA

Row | EC50, SHC1 recruitment assay [1] [nM] | Fold-increase, SHC1 recruitment assay [2] [fold] | Fold-increase, SHC1 recruitment assay [1] [fold] | Fold-increase, SHC1 recruitment assay [3] [fold] | Substance
1 | 1.59 |  |  |  | NGF (R&D 256GF) (ligand)
2 |  | 1.1 | 1.1 | 1 | hIgG control antibody
